The text below walks through data of CN112574305A (UNIV TSINGHUA RES INST SHENZHEN, dated 2021).

One experiment has as its target T1, ProBDNF.
T1 sequence (peptide): CDQKVRPNEENNKDA
Put plainly: ELISA, OD450. On the technique in general: An ELISA detects its analyte on a solid surface through an enzyme-linked reagent.

Another experiment has as its target T2, mBDNF (UniProt P23560 129-247, limits assumed).
T2 construct: mature; also called 成熟BDNF
T2 sequence (looked up): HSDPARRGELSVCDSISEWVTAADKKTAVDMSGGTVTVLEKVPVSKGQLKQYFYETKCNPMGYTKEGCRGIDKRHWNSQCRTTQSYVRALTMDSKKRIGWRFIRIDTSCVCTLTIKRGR
Nature of the experiment: ELISA, mBDNF coated at 2 μg/ml, purified antibody added, OD450.

B1: 抗ProBDNF抗体 (antibody, IgG2b, V domains shown)
VH: QVQLQQSGPELVKPGASVTISCKTSAYGFSSSWMNWVKQRPGQGLEWIGRIYPGDGETNYNGKFMGKATLTADKSSNTVYMHLSSLTSVDSAVYFCTRRELVYWGQGTLVTVSA
VL: DIVLTQSPASLAVSLGQRATISCRTSESVDTYGNSFIHWYQQKPGQPPKLLIYRASRLESGIPARFSGSGSRTDFTLTINPVEADDVATYYCQQSYEDPWTFGGGTKLEIK
notes: Mouse hybridoma antibody, made recombinantly in 293 cells; also called 针对前体脑源性神经营养因子的抗体; 实施例2提供的纯化抗体
The molecule B1 showed a 抗原浓度 (lowest antigen concentration detected) in the experiment with ProBDNF of 1.95 ng/mL. Besides, the binding result with mBDNF was “no binding”.
